Positions count from the first letter of the chain named.
B1: STMH6: Isolated hexahistidine-tagged stefin A (protein, UniProt P01040 1-98, looked up)
Cystatin-A: MIPGGLSEAKPATPEIQEIVDKVKPQLEEKTNETYGKLEAVQYKTQVVAGTNYYIKVRAGDNKYMHLKVFKSLPGQNEDLVLTGYQVDKNKDDELTGF
modifications: His6 tag
notes: Isolated hexahistidine-tagged stefin A
B2: T22-NIDOmut2-H6: Modular protein: N-terminal T22 CXCR4 ligand, linker, mutated human nidogen-1 G2 domain (NIDOmut2), C-terminal poly-histidine; SEQ ID NO: 61 (protein)
chain: RRWCYRKCYKGYCYRKCRGGSSRSSSPQRVNGKVKGRIFVGSSQVPIVFENTDLASYVVMNHGNSYTAISTIPETVGYSLLPLAPVGGIIGWMFAVEQDGFKNGFSITGGEFTRQAEVTFVGHPGNLVIKQRFSGIDEHGHLTIDTELEGRVPQIPFGSSVHIEPYTELYHYSTSVITSSSTREYTVTEPERDGASPSRIYTYQWRQTITFQECVHDDSRPALPSTQQLSVDSVSVLYNQEEKILAYALSNSIGPVREGSPDAKHHHHHH
B3: T22-NIDOmut5-H6: T22 fusion protein, SEQ ID NO: 113 (protein)
chain: B2 chain with V45T, V121Q, H139K, H141N, F157E, C214S, V215T
modifications: T22-NIDOmut5-H6
B4: T22-NIDOmut3-H6: T22-linker-NIDOmut3-H6 fusion protein, SEQ ID NO: 106 (protein)
chain: B2 chain with H139K, H141N
modifications: T22-NIDOmut3-H6

What was measured:
[1] = Intrinsic fluorescence (Centre of Spectral Mass) vs temperature, unfolding temperature determination; type: physicochemical; conditions: for Stability indexes Tm, Tonset and ΔT from CSM profiles: carbonate and FDA-approved buffers A9, B6, D1
Protocol: Fluorescence spectra were recorded in a Cary Eclipse spectrofluorimeter (Agilent Technologies, Mulgrave, Australia). A quartz cell with 10 mm path length and a thermostated holder was used. The excitation and emission slits were set at 5 nm. Excitation wavelength (λex) was set at 295 nm. Emission spectra were acquired within a range from 310 to 450 nm. The protein concentration was 0.2 mg/mL in carbonate buffer (166 mM NaCO3H, pH 8). In order to evaluate the conformation stability against heating we obtained the fluorescence spectra at each temperature at a 1° C./min scan rate and we calculated the Centre of Spectral Mass (CSM) for each spectrum. CSM is a weighted average of the fluorescence spectrum peak. Also it is related with the relative exposure of the Trp to the protein environment. The maximum red-shift in the CSM of the Trp, is compatible with a large solvent accessibility (Li, T. M.; et al., Biochemistry 1976, 15, 5571-80; Ruan, K and Weber, G, Biochemistry 1989, 28 (5), 2144-53 and Mohana-Borges, R. et al., Proceedings of the National Academy of Sciences of the United States of America 1999, 96 (14), 7888-93) and the protein unfolding.
The Centre of Spectral Mass (CSM) was calculated for each of the fluorescence emission according to Eq.1 (Lakowicz, J. R.; et al., 1991, Biophys Chem 39(1), 79-84), where Ii is the fluorescence intensity measure at the wavelength λi.
Midpoint unfolding temperature (Tm) was determined as the temperature value that correspond to the inflexion point of the CSM vs T° curve. We also determined the Tonset as the temperature where the CSM value begins to increase.

[2] = Volume size distribution of protein nanoparticles and nanoconjugates by Dynamic Light Scattering (DLS); type: physicochemical; conditions: for Nanoparticle size after assembly with ZnCl2 (DLS): assembled with ZnCl2 (0.04 mM and further concentrations up to 0.16 mM)
Protocol: Volume size distribution of all protein nanoparticles and nanoconjugates were determined by Dynamic Light Scattering (DLS) at 633 nm in a Zetasizer Nano ZS (Malvern Instruments) in triplicate.
Volume size distribution of protein nanoparticles was determined in a Zetasizer Nano ZS (Malvern Instruments) by Dynamic Light Scattering (DLS) at 633 nm in triplicates.
The integrity of the recombinant proteins was checked by mass spectrometry (MALDI-TOF), TGX (Tris-Glycine eXtended) Stain-Free acrylamide gels electrophoresis (BioRad) and Western Blot analysis using anti-His monoclonal antibody (1:1000; Santa Cruz, ref. 57598). Protein concentration was determined by Bradford (Biorad) assay with an Albumin (Roche) standard curve. GFP fluorescence emission (510 nm) was determined on purified proteins with a Cary Eclipse fluorescence spectrophotometer (Agilent Technologies) using an excitation wavelength of 450 nm. The volume and size distribution of nanoparticles were measured by dynamic light scattering (DLS) at 633 nm through a Zetasizer Nano ZS (Malvern Instruments) using quartz cuvettes.

[3] = Precipitation assay against increasing concentrations of ZnCl2; type: physicochemical; conditions: increasing ZnCl2 up to 0.16 mM
Protocol: T22-NIDOmut3-H6, T22-NIDOmut4 T215V-H6 and T22-NIDOmut5-H6 were selected to proceed with the characterization due to their best production yields (24, 26 and 28 mg/L, respectively). At this point, volume-size distribution of each candidate was studied via DLS (FIG. 16). All three candidates were equivalent to the original T22-NIDOmut2-H6 in size before and after assembly into nanoparticles with ZnCl2 (0.04 mM). […] Precisely because Zn is used to mediate this assembly, it was deemed appropriate to perform a precipitation assay against increasing concentrations of ZnCl2, up to 0.16 mM, (FIG. 17A) to test whether the new proteins were resistant to Zn-induced precipitation or not.

[4] = Stability study in buffers: soluble protein loss after dialysis (Bradford, Nanodrop)
Protocol: For the stability study in other buffers, purified protein fractions were dialyzed against chosen FDA-approved buffer and carbonate as control. Protein concentration was initially set at 2.0 mg/ml in carbonate buffer and dialysed into 0.5 ml of each new buffer. Samples were centrifuged for 15 min 15000 g to remove precipitate and the remaining soluble protein concentration was determined by Bradford's assay and Nanodrop.
The stability of resulting proteins was studied in three FDA-approved buffers, and carbonate as control buffer.

[5] = tested on: CXCR4+ HeLa cells; test: In vitro cell viability of FdU nanoconjugates (CellTiter-Glo Luminescent Cell Viability Assay); type: cell-based, Human; conditions: CXCR4+ HeLa cell line, 25 nM, 48 h
Protocol: HeLa cells (ATCC, CCL-2) were incubated in opaque 96-well plates in 90 μl of MEM alpha medium (Gibco) containing 10% of Fetal bovine serum (Gibco) in humidified atmosphere and 5% CO 2 at 37° C. Then, 10 μl of T22-NIDOmut3-H6-FdU and T22-NIDOmut2-H6-FdU nanoconjugates were added along with the control T22-NIDOmut3-H6 at 25 nM final concentration and incubated for additional 48 h. Cell viability was finally tested by CellTiter-Glo® Luminescent Cell Viability Assay (Promega) in a Victor 3 luminescent plate reader (Perkin Elmer). All samples were analyzed in triplicate and data expressed as mean % of viability (related to control cells)+/− standard error.

Row | Molecule | Tm ([1]; *Tm value assuming that the maximal CSM values represent the entirely unfolding state of the protein) | Tonset, 1 ([1]; temperature where the CSM value begins to increase) [°C] | Nanoparticle size (volume size distribution, DLS) ([2]; self-assembled material in storage (carbonate) buffer) [nm] | Loss of the initial soluble protein by Zn-induced precipitation [3] | % Precipitation (Bradford) ([4]; buffer A9) | % Precipitation (Nanodrop) ([4]; buffer A9) | % Precipitation (Bradford) ([4]; buffer B6) | % Precipitation (Nanodrop) ([4]; buffer B6) | % Precipitation (Bradford) ([4]; buffer Carbonate) [%] | % Precipitation (Nanodrop) ([4]; buffer Carbonate) [%] | % Precipitation (Bradford) ([4]; buffer D1) [%] | % Precipitation (Nanodrop) ([4]; buffer D1) [%] | Nanoparticle size after assembly with ZnCl2 (DLS) [2] | Stability indexes Tm, Tonset and ΔT from CSM profiles [1] | Solubility after dialysis ([4]; buffer A9) | Cytotoxicity [5] | Solubility after dialysis ([4]; buffer B6)
1 | B1 | ≅76° C.* | 70 |  |  |  |  |  |  |  |  |  |  |  |  |  |  | 
2 | B2 |  |  | ~12 | up to 66% | 12.7% | 29.0% | None | None | 17.6 | 23.9 | 84.1 | 86.5 |  |  |  |  | 
3 | B3 |  |  |  |  | None | None | 15.4% | 26.6% | 60.4 | 24.2 | 50.1 | 62.4 | nanoparticles of higher size | Second protein with better stability indexes | best suited |  | 
4 | B4 |  |  |  |  | 10.25% | 15.4% | 5.4% | None | 17.6 | 24.5 | 83.6 | 84.3 | 17 nm | shows the highest values |  | did not cause any cytoxicity | remained highly soluble

From US12649776B2, “Scaffold proteins and therapeutic nanoconjugates based on nidogen” (UNIVERSITAT AUTÒNOMA DE BARCELONA, priority 2019, dated 2026)
